Experimental data reported in patent US20240116985A1 (published 2024).
Starred links: 1 amine or outer side, 2 acyl side, 3 side chain; linkers in the order of their positions; H or OH if unused. Positions of bridges follow the written chain, without caps; N, C: chain ends. Non-standard residues stand in square brackets, D forms with d. Primed or numbered codes have the meaning given here. No end group written: not given here. PyrS2″ = (S)-3-amino-1-((pent-4-en-1-yloxy)carbonyl)pyrrolidine-3-carboxylic acid (stapling residue), C=CCCCOC(=O)N1CC[C@@](N[*:1])(C(=O)[*:2])C1; B5(4) = 2,2-bis(4-pentenyl)glycine = 2-amino-2-(pent-4-en-1-yl)hept-6-enoic acid (stitching residue), C=CCCCC(CCCC=C)(N[*:1])C(=O)[*:2]; PyrS2 = (S)-3-amino-1-((pent-4-en-1-yloxy)carbonyl)pyrrolidine-3-carboxylic acid, C=CCCCOC(=O)N1CC[C@@](N[*:1])(C(=O)[*:2])C1; B5(13) = 2-amino-2-(pent-4-en-1-yl)hept-6-enoic acid (two alkene chains), C=CCCCC(CCCC=C)(N[*:1])C(=O)[*:2]; B5(3) = 2,2-bis(4-pentenyl)glycine (stitching residue), C=CCCCC(CCCC=C)(N[*:1])C(=O)[*:2]; Phe(2-CF3) = N[C@@H](Cc1ccccc1C(F)(F)F)C(=O)O; Phe(2-CONH2) = NC(=O)c1ccccc1C[C@H](N)C(=O)O; Phe(2-Br) = N[C@@H](Cc1ccccc1Br)C(=O)O; Phe(2-Cl) = N[C@@H](Cc1ccccc1Cl)C(=O)O; Phe(2-OMe) = COc1ccccc1C[C@H](N)C(=O)O; 1Nal = N[C@@H](Cc1cccc2ccccc12)C(=O)O; 2Nal = N[C@@H](Cc1ccc2ccccc2c1)C(=O)O; Phe(2-F) = N[C@@H](Cc1ccccc1F)C(=O)O; Phe(2-Me) = Cc1ccccc1C[C@H](N)C(=O)O; Bta = N[C@@H](Cc1csc2ccccc12)C(=O)O; Lys(iPr) = CC(C)NCCCC[C@H](N)C(=O)O; αAllylPro = C=CC[C@@]1(C(=O)O)CCCN1; tBuAla = CC(C)(C)C[C@H](N)C(=O)O; 2Thi = N[C@@H](Cc1cccs1)C(=O)O; 3Thi = N[C@@H](Cc1ccsc1)C(=O)O; Cha = N[C@@H](CC1CCCCC1)C(=O)O; Thr(ol) = C[C@@H](O)[C@H](N)CO; hLeu = CC(C)CC[C@H](N)C(=O)O

T1: B-cat-Halo (UniProt P35222 1-781)
T1 sequence (looked up): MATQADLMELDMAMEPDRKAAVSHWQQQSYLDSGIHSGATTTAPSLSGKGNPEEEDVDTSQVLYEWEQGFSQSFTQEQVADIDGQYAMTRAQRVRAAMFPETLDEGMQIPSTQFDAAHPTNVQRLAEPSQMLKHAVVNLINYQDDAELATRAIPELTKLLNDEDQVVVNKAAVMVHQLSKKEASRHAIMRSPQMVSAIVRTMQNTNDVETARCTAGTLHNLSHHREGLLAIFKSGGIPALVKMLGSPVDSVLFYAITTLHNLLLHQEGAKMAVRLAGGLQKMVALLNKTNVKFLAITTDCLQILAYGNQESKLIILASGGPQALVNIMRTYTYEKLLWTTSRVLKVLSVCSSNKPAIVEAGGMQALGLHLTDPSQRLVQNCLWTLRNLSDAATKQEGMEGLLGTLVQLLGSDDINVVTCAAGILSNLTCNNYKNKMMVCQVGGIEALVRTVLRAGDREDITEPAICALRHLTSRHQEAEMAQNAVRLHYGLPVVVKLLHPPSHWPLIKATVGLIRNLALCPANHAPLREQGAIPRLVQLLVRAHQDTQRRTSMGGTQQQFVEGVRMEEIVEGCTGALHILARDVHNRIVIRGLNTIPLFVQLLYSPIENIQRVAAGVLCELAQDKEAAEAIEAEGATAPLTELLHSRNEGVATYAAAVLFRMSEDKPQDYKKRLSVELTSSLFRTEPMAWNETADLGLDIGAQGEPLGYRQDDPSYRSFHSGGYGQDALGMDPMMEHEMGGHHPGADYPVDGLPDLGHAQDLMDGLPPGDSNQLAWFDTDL

T2: B-cat-Halo (UniProt P35222 1-781)
T2 sequence (looked up): T1 sequence (looked up)


Target: T1, B-cat-Halo
Assay: cell-based or functional assay

Row | NanoBRET Abs IC50 [µM] | Binder
1 | 26.2 | Ac-[αAllylPro]D[tBuAla][B5(4)]DDAAFN[PyrS2″][Phe(2-F)][Bta]Q-NH2 (staple 1-4, 4-11) [I-1320]
2 | 16.1 | Ac-[αAllylPro]D[Cha][B5(4)]DDAAFT[PyrS2″][Phe(2-Cl)][Bta][Thr(ol)] (staple 1-4, 4-11) [I-1312]
3 | 5.7 | [αAllylPro]D[tBuAla][B5(4)]DDAAFF[PyrS2″][Phe(2-Br)][Bta]Q-NH2 (staple 1-4, 4-11) [I-1325]
4 | 10.9 | Ac-[αAllylPro]D[tBuAla][B5(4)]DDAAFL[PyrS2″][Phe(2-F)][Bta]Q-NH2 (staple 1-4, 4-11) [I-1321]
5 | 9.1 | Ac-[αAllylPro]D[tBuAla][B5(4)]DDAAFF[PyrS2″][Phe(2-F)][Bta]Q-NH2 (staple 1-4, 4-11) [I-1322]
6 | 7.2 | Ac-[αAllylPro]D[tBuAla][B5(4)]DDAAFL[PyrS2″][2cbmF][Bta]Q-NH2 (staple 1-4, 4-11) [I-1315]
7 | 9.7 | Ac-[αAllylPro]D[tBuAla][B5(4)]DDAAFN[PyrS2″][Phe(2-CF3)][Bta]Q-NH2 (staple 1-4, 4-11) [I-1317]
8 | > 20 | Ac-[αAllylPro]D[tBuAla][B5(4)]DDAAFN[PyrS2″][Phe(2-CONH2)][Bta]Q-NH2 (staple 1-4, 4-11) [I-1314]
9 | 7 | [αAllylPro]D[tBuAla][B5(4)]DDAAFL[PyrS2″][Phe(2-OMe)][Bta]Q-NH2 (staple 1-4, 4-11) [I-1327]
10 | 5.4 | [αAllylPro]D[tBuAla][B5(4)]DDAAFF[PyrS2″][Phe(2-OMe)][Bta]Q-NH2 (staple 1-4, 4-11) [I-1328]
11 | 51.4 | Ac-[αAllylPro]D[tBuAla][B5(4)]DD[Lys(iPr)]AFL[PyrS2″][Phe(2-Cl)][Bta][Thr(ol)] (staple 1-4, 4-11) [I-1313]
12 | 6.8 | Ac-[αAllylPro]D[tBuAla][B5(4)]DDAAFF[PyrS2″][2cbmF][Bta]Q-NH2 (staple 1-4, 4-11) [I-1316]
13 | 6.2 | [αAllylPro]D[tBuAla][B5(4)]DDAAFF[PyrS2″][Phe(2-Me)][Bta]Q-NH2 (staple 1-4, 4-11) [I-1326]
14 | 5.8 | [αAllylPro]D[tBuAla][B5(4)]DDAAFL[PyrS2″][Phe(2-Br)][Bta]Q-NH2 (staple 1-4, 4-11) [I-1324]
15 | 11.7 | Ac-[αAllylPro]D[tBuAla][B5(4)]DDAAFN[PyrS2″][Phe(2-Br)][Bta]Q-NH2 (staple 1-4, 4-11) [I-1323]

Target: T2, B-cat-Halo
Assay: cell-based or functional assay

Row | NanoBRET Abs IC50 [µM] | Binder
16 | 29.3 | Ac-[αAllylPro]D[tBuAla][B5(3)]DEAAFN[PyrS2][3Thi][Bta]-NH2 (staple 1-4, 4-11) [I-786]
17 | > 20 | Ac-[αAllylPro]D[tBuAla][B5(3)]DDAAFN[PyrS2][3Thi][2Nal]H-NH2 (staple 1-4, 4-11) [I-790]
18 | 30.7 | Ac-[αAllylPro]D[hLeu][B5(3)]DDAAFN[PyrS2][3Thi][Bta]Q-NH2 (staple 1-4, 4-11) [I-787]
19 | 12.2 | Ac-[αAllylPro]D[tBuAla][B5(13)]DDAAFN[PyrS2][Phe(2-Me)][Bta]H-NH2 (staple 1-4, 4-11) [I-782]
20 | 19.8 | Ac-[αAllylPro]D[tBuAla][B5(13)]DDAAFN[PyrS2]F[Bta]H-NH2 (staple 1-4, 4-11) [I-777]
21 | 6.2 | Ac-[αAllylPro]D[tBuAla][B5(13)]DDAAFN[PyrS2][Phe(2-Cl)][Bta]Q-NH2 (staple 1-4, 4-11) [I-783]
22 | > 20 | Ac-[αAllylPro]D[tBuAla][B5(3)]DDAAFN[PyrS2][Bta][Bta]H-NH2 (staple 1-4, 4-11) [I-793]
23 | 21.6 | Ac-[αAllylPro]D[hLeu][B5(3)]DDAAFN[PyrS2][3Thi][Bta]H-NH2 (staple 1-4, 4-11) [I-788]
24 | 21.6 | Ac-[αAllylPro]D[tBuAla][B5(3)]DDAAFN[PyrS2][3Thi][Bta]-NH2 (staple 1-4, 4-11) [I-785]
25 | 18.7 | Ac-[αAllylPro]D[tBuAla][B5(13)]DDAAFN[PyrS2][2Thi][Bta]H-NH2 (staple 1-4, 4-11) [I-779]
26 | > 20 | Ac-[αAllylPro]D[tBuAla][B5(3)]DDAAFN[PyrS2][3Thi]WH-NH2 (staple 1-4, 4-11) [I-792]
27 | 11.2 | Ac-[αAllylPro]D[tBuAla][B5(13)]DDAAFN[PyrS2][2Thi][Bta]Q-NH2 (staple 1-4, 4-11) [I-778]
28 | 14.5 | Ac-[αAllylPro]D[tBuAla][B5(3)]DDAAFN[PyrS2][Phe(2-Cl)][Bta]H-NH2 (staple 1-4, 4-11) [I-784]
29 | > 20 | Ac-[αAllylPro]D[tBuAla][B5(3)]DDAAFN[PyrS2][3Thi][1Nal]H-NH2 (staple 1-4, 4-11) [I-789]
30 | 20.7 | Ac-[αAllylPro]D[tBuAla][B5(13)]DDAAFN[PyrS2][Phe(2-OMe)][Bta]Q-NH2 (staple 1-4, 4-11) [I-780]
31 | 31 | Ac-[αAllylPro]D[tBuAla][B5(13)]DDAAFN[PyrS2][Phe(2-OMe)][Bta]H-NH2 (staple 1-4, 4-11) [I-781]
